Data on one molecule can be found in patent US20110311550A1 (Scripps Research, published 2011).

Assay in all cases: ELISA, lectin-captured E1E2 lysate, Ab 1 ug/ml;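 note: E1E2 captured on Galanthus nivalis lectin-coated plates, bound test antibody read out by an HRP-linked secondary antibody and TMB colour development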
Test [1] has as its target E1E2 complex (H77) with E1 mutation S307A (HCV genotype 1a, isolate H77, UniProt P27958 192-383; P27958 384-746).
Test [2] has as its target E1E2 complex (H77) with E1 mutation L258A (HCV genotype 1a, isolate H77, UniProt P27958 192-383; P27958 384-746).
Test [3] addresses E1E2 complex (H77) with E1 mutation Y201A (HCV genotype 1a, isolate H77, UniProt P27958 192-383; P27958 384-746).
Test [4] concerns the target E1E2 complex (H77) with E1 mutation G354A (HCV genotype 1a, isolate H77, UniProt P27958 192-383; P27958 384-746).
The target of test [5] is E1E2 complex (H77) with E1 mutation I212A (HCV genotype 1a, isolate H77, UniProt P27958 192-383; P27958 384-746).
The target of test [6] is E1E2 complex (H77) with E1 mutation H222A (HCV genotype 1a, isolate H77, UniProt P27958 192-383; P27958 384-746).
Test [7] concerns the target E1E2 complex (H77) with E1 mutation N196A/N234A (HCV genotype 1a, isolate H77, UniProt P27958 192-383; P27958 384-746).
Test [8] addresses E1E2 complex (H77) with E1 mutation R259A (HCV genotype 1a, isolate H77, UniProt P27958 192-383; P27958 384-746).
For test [9], the target named is E1E2 complex (H77) with E1 mutation G311A (HCV genotype 1a, isolate H77, UniProt P27958 192-383; P27958 384-746).
Test [10] concerns the target E1E2 complex (H77) with E1 mutation S211A (HCV genotype 1a, isolate H77, UniProt P27958 192-383; P27958 384-746).
The target in test [11] is E1E2 complex (H77) with E1 mutation G282A (HCV genotype 1a, isolate H77, UniProt P27958 192-383; P27958 384-746).
The target of test [12] is E1E2 complex (H77) with E1 mutation D263A (HCV genotype 1a, isolate H77, UniProt P27958 192-383; P27958 384-746).
Test [13] addresses E1E2 complex (H77) with E1 mutation A274G (HCV genotype 1a, isolate H77, UniProt P27958 192-383; P27958 384-746).
The target of test [14] is E1E2 complex (H77) with E1 mutation G315A (HCV genotype 1a, isolate H77, UniProt P27958 192-383; P27958 384-746).
Test [15] has as its target E1E2 complex (H77) with E1 mutation T329A (HCV genotype 1a, isolate H77, UniProt P27958 192-383; P27958 384-746).
The target in test [16] is E1E2 complex (H77) with E1 mutation T255A (HCV genotype 1a, isolate H77, UniProt P27958 192-383; P27958 384-746).
The target of test [17] is E1E2 complex (H77) with E1 mutation H261A (HCV genotype 1a, isolate H77, UniProt P27958 192-383; P27958 384-746).
In test [18] the target is E1E2 complex (H77) with E1 mutation M318A (HCV genotype 1a, isolate H77, UniProt P27958 192-383; P27958 384-746).
In test [19] the target is E1E2 complex (H77) with E1 mutation S327A (HCV genotype 1a, isolate H77, UniProt P27958 192-383; P27958 384-746).
Test [20] deals with E1E2 complex (H77) with E1 mutation W326A (HCV genotype 1a, isolate H77, UniProt P27958 192-383; P27958 384-746).
Test [21] has as its target E1E2 complex (H77) with E1 mutation Y309A (HCV genotype 1a, isolate H77, UniProt P27958 192-383; P27958 384-746).
In test [22] the target is E1E2 complex (H77) with E1 mutation W320A (HCV genotype 1a, isolate H77, UniProt P27958 192-383; P27958 384-746).

B1: N4 IgG (antibody, V domains shown)
VH: VQLLEQSGPEVKKPGDSLRISCKMSGDSLVTTWIGWVRQKPGQGLEWMGIINPGDSSTNIYPGDSATRYGPSFQGQVTISIDKSTSTAYLQWNNVKASDTGIYYCARHVPVPISGTFLWREREMHDFGYFDDWGQGTLVIVSS
VL: ELTLTQSPGTLSLSPGERATLSCRASQSVSNNYLAWYQQKPGQAPRLLIYGASSRATGIPDRFSGSGSGTGFTLIISRLEPEDFAVYYCQQYGSSSITFGQGTRLEIKR
notes: also called IgG N4
For B1, the “Binding relative to wt (%)” value amounted to 58% in test [1]; 89% in test [2]; 7% in test [3]; 90% in test [4]; 51% in test [5]; 44% in test [6]. For the same molecule, the “Binding relative to wt (%)” value is 32% in test [7]; 102% in [8]; 87% in [9]; 93% in [10]; 128% in test [11]; 85% in test [12]. The “Binding relative to wt (%)” value turned out to be 71% in test [13]; 87% in test [14]; 114% in test [15]; 96% in test [16]; 106% in [17]; 92% in test [18]. Besides, the “Binding relative to wt (%)” value in [19] came out at 69%; in [20], 125%; in [21] it was 32%; in [22] it was 121%.
